Data as given in patent publication US20090117593A1, “T. Cruzi-derived neurotrophic agents and methods of use therefor” (Tufts University, priority 2006, published 2009).
Entries after “also recorded” stand apart in the source; their conditions may differ.

What was measured:
IL-6 [1] = experiment: IL-6 secretion by T-24 carcinoma cells (ELISA); type: cell-based, human; conditions: 24 hours
Description: (§1) Primary cultures of human intestinal microvascular endothelial cells (HIMEC) isolated from normal jejunal mucosa/submucosal tissue were prepared as described (Strong et al., Gastroenterology 114:1244-1256 (1998)). The HIMEC were cultured in fibronectin-coated plasticware in MCDB medium (Sigma) supplemented with 20% FBS, 90 μg/ml heparin and 50 μg/ml endothelial cell growth factor (Sigma). T-24 cells (ATCC Accession No. HTB-4) were cultured in M199 medium supplemented with 10% FBS. PBMC were purified by Ficoll-Paque gradient as described (Current Protocols in Immunology, pp 7.1.1-7.1.2). Vero cells (ATCC Accession No. CCL-81) were grown in RPMI medium with 5% Nu serum and infected with the Silvio X-10/4 of T. cruzi as described previously (Chuenkova et al., J. Exp. Med. 181:1693-1703 (1995)).
(§2) Endothelial cells and T-24 cells were plated on 24-well plates at a density of 1×10^3 cells/well, while peripheral blood mononuclear cells (PBMC) were plated in the similar wells at 1×10^6/well. Triplicat cultures of cells were incubated test agents for a predetermined amount of time. […] Cytokines and chemokines released in the culture supernatants were measured by ELISA assay following the instructions of the manufacturer (Endogen). The cytokines tested were IL-1β, IL-4, IL-8, […], IL-12, IFN-γ, TNF-α, and the chemokines RANTES and MCP-1. Negative controls were cells incubated in medium containing polymixin B at 10 μg/ml, and positive controls were cells incubated with bacterial LPS at the low ng/ml range (for PBMC or HIMEC) or in the μg/ml range for carcinoma T-24 cells. In some experiments, IL-1β or TNFα were used as positive control for cytokine release.

Trans-sialidase assay = type: biochemical
Description: The trans-sialidase assay was performed as described (Scudder, P. et al., J. Biol. Chem., 268:9886-9891 (1993)) with slight modifications. Various amounts of intact enzyme or enzyme fragments were added to 50 mM PBS, Ph 7.2, containing 15% fetal calf serum and […] of [^14C]N-acetyllactosamine (4×10^5 dpm), 50 μg BSA and 0.02% NaN3 in a volume of 60 μl. After incubation for a predetermined amount of time at room temperature, the reaction mixture was diluted to 1.0 ml with distilled water and applied to a column containing 1.0 ml Q-Sepharose equilibrated with water. Sialylated product was eluted with 1 M NaCl and quantified by scintillation counting.
TS enzymatic activity was measured by the sialylation of the acceptor ^14C-labeled N-acetyllactosamine on anion exchange resins (Scudder, P. et al., J. Biol. Chem. 268:9886-9891 (1993)). Recombinant TSA-1, was expressed on insect sf9 cells and purified from serum-free medium by ion exchange chromatography (monoQ) and preparative SDS-PAGE (Wrightsman, R. A. et al., J. Immunol., 153:3148-3154 (1994).

IL-6 [2] = experiment: IL-6 secretion by PBMC (ELISA); type: cell-based, human; conditions: 24 hours
Description: as §1, §2
TR peptides (Table 2) were synthesized at the Tufts Synthesis Facility (Boston, Mass.). Each peptide was purified by HPLC, and the number of amino acids and molecular weight of each peptide verified by mass spectrometry. Peptides were dissolved in growth medium (10% FCS in RPMI) and added at various concentrations to 1×10^6 PBMC/well in 24-well plates. After 24 hours, IL-6 was assayed by ELISA in the conditioned supernatants.

human Schwann cells = experiment: Serum withdrawal-induced apoptosis of Schwann cells (DAPI); type: cell-based
neuroblastoma N18 cells = experiment: Neurite outgrowth assay in N18 cells; type: cell-based; conditions: soluble or immobilized on plastic (500 μg/ml coating), 17 hours
Description: 96-well microtiter plates were coated overnight at 4° C. with the TS or peptides or fragments thereof, or with control proteins laminin (Ln) or bovine serum albumin (BSA) at 500 μg/ml. After removing the compounds, the plates were further incubated with 1% BSA for 1 hour at room temperature and immediately used as substratum for PC12 or N18 (Prasad, K., Biol. Rev. Camb. Philos. Soc., 66:431-451 (1991)) cells in serum-free RPMI/0.2% BSA. Neurite outgrowth was measured using a phase-contrast microscope 17 hours later.

Akt kinase [3] = experiment: Immunodetection and kinase assay of activated Akt in Schwann cells
Description: Schwann cells, grown in 10% FCS to 70% confluency in 6-well plates, were switched to DMEM containing 0.1% FCS for 48 hours to reduce basal Akt phosphorylation. Then the cells were placed in serum-free DMEM medium for 2 hours and challenged with TS, CD or other test factors for predetermined periods of time. When the PI-3 kinase inhibitor LY294002 (Sigma) was used, the inhibitor was added to the serum-starved cells 30 minutes before challenge with TS or CD. Cell samples were lysed with lysis buffer (20 mM Tris, pH 7.5, 150 mM NaCl, 1 mM EDTA, 1% Triton X-100 (t-Octylphenoxypolyethoxyethanol), 2.5 mM sodium pyrophosphate, 1 mM glycerophosphate, 1 mM Na3VO4, 1 μg/ml leupeptin and 1 mM Phenymethylsulfonyl fluoride (PMSF)). Samples (40 μg) were run on 10% SDS-Page, blotted to nitrocellulose paper and analyzed by Western (immuno) blot with monoclonal antibody specific for P-Ser473 of Akt (New England Biolabs). Reaction was visualized by chemiluminescence using the ECL kit (New England Nuclear).
Enzymatic activity of Akt kinase was assessed using the synthetic substrate GSK-3α-fusion protein (Cell Signaling Technology, Beverly, Mass.), according to the protocol provided by Cell Signaling Technology. In short, lysates of Schwann cells subjected to various treatments were immunoprecipitated with Akt antibody coupled to agarose beads, and the immunoprecipitates incubated with GSK-3α-fusion protein as the substrate for Akt phosphorylation, in the presence of 200 μM ATP. Phosphorylation of GSK-3 fusion protein was detected by Western blot using phospho-GSK-3αβ (Ser21/9)-specific antibody (Cell Signaling Technology). The reaction product was identified by chemiluminescence using the ECL kit (New England Nuclear).

Akt kinase [4] = experiment: Immunodetection of activated Akt in PC12 cells; type: cell-based; conditions: Western blot, phospho-Akt (Ser 473) antibody; 100 ng/ml
Description: PC12 cells were deprived of serum for 24-48 hours, stimulated with TS, TS-F or LTR for 2, 5 or 10 minutes and immediately lysed with 2% SDS. In studies using the PI-3 kinase inhibitor, LY294002 (LY), cells were pre-treated with the inhibitor (1 μM) for 30 min prior to the addition of TS-F or TS. The proteins in the cell lysate were separated in SDS-10% polyacrylamide gels, transferred to nitrocellulose membrane (Bio-Rad) and the phosphorylated form of protein kinase Akt was detected with phospho-Akt (Ser 473) antibody (New England BioLabs, Beverly, Mass.), followed by alkaline phosphatase-conjugated secondary antibody (Promega, Madison, Wis.). Bands corresponding to phospho-Akt (60 kDa) were quantified using a scanning densitometer (Bio-Rad).

PC12 cells = experiment: Protection of PC12 cells from apoptosis induced by trophic factor withdrawal (DAPI, TUNEL); type: cell-based; conditions: serum-free RPMI-1640/0.2% BSA, 17 hours, DAPI or TUNEL
Source text: PC12 cells were obtained from ATCC (Manassas, Va. (Accession No. CRL-1721)) and cultured on collagen-coated dishes in RPMI 1640 supplemented with 10% horse serum and 5% fetal bovine serum (Greene, L., and Tishler, A., Proc. Natl. Acad. Sci. USA, 73:2424-2428 (1976)). For differentiation and survival experiments, cells were washed three times in serum-free RPMI/0.2% BSA, plated in the same medium in collagen-coated plastic dishes at 2×10^5/ml, without and with growth factors, TS, recombinant proteins, synthetic peptides, for the time and concentrations indicated in the Figures.
Cell staining with 4,6-diamino-2-phenylindole (DAPI). Cells were fixed with 4% formaldehyde in PBS for 5 minutes, washed with PBS, stained with 10 μg/ml DAPI (Sigma) for 2 minutes, washed with PBS, and visualized under UV light using a fluorescent microscope. About 300-400 cells were examined under the microscope to determine the percentage of apoptotic cells.
Cell DNA nick end labeling (TUNEL) (Gavrieli, Y. et al., J. Cell. Biol., 119:493-501 (1992)) assay was performed using a kit purchased from Boehringer Mannheim as described by the manufacturer.
Protection against apoptosis of PC12 cells in serum-free medium containing a test agent (agent N) (e.g., protection induced by TS, TS fragments, NGF or other growth factors), was calculated by the formula: 100%−[(apoptosis(%) of cells kept in RPMI containing test agent N÷apoptosis (%) of cells kept in RPMI)×100%]. Testing the effect of Wortmannin (Sigma) and LY294002 (Sigma) in inhibiting the neuroprotection of TS was performed following the protocol described by others (Yao, R., and Cooper, G., Science, 267:2003-2006 (1995); D'Mello, et al., J. Neurosci., 17:1548-1560 (1997)). In brief, PC12 cells were switched from growth medium to RPMI without and with TS or various other growth factors. After 24 hours, Wortmannin and LY294002 were added to the cultures. After another 24 hours, cells were examined for apoptosis by the DAPI assay, as above.

B1: TS-154: recombinant catalytically active trans-sialidase construct with 5 tandem repeat units (protein, listed as Trypanosoma cruzi)
chain: KKKQVFSKIFYSEDEGKTWKFGEGRSDFGCSEPVALEWEGKLIINTRVDYRRRLVYESSDMGNSWVEAVGTLSRVWGPSPKSNQPGSQSSFTAVTIEGMRVMLFTHPLNFKGRWLRDRLNLWLTDNQRIYNVGQVSIGDENSAYSSVLYKDDKLYCLHEINSNEVYSLVFARLVGELRIIKSVLQSWKNWDSHLSSICTP
- IL-6 secretion by T-24 cells (IL-6 [1]): as powerful as enzymatically-inactive TS-H32 in stimulating IL-6 secretion
- trans-sialidase (enzymatic) activity (Trans-sialidase assay): enzymatically-active
- IL-6 secretion by PBMC (IL-6 [2]): as powerful as enzymatically-inactive TS-H32 in stimulating IL-6 secretion

B2: TS-F: recombinant full catalytic domain of TS, amino acid residues 33-666 (protein, listed as Trypanosoma cruzi)
chain: ETQIAIKNSRVSSVSRVVDPTVIVKGNKLYVLVGSYYSSRSYWSSHGDARDWDILLAVGEVTKSTAGGKITASIKWGSPVSLKKFFPAEMEGMHTNQFLGGAGVAIVASNGNLVYPVQVTNKRKQVFSKIFYSEDDGKTWKFGKGRSDFGCSEPVALEWEGKLIINTRVDWKRRLVYESSDMEKPWVEAVGTVSRVWGPSPKSNQPGSQTSFTAVTIEGMRVMLFTHPLNFKGRCVRDRLNLWLTDNQRIYNVGQVSIGDENSAYSSVLYKDDKLYCLHEINTDEVYSLVFARLVGELRIIKSVLRSWKNWTATCPAFAPLLIQPLRRQRVVVVPLSPRLVLLAFCRQRLPKRMGGSYRCVNASTANAERVRNGLKFAGVGGGALWPVSQQGQNQRYRFANHAFTLVASVTIHEAPRAASPLLGASLDSSGGKKLLGLSYDEKHQWQPIYGSTPVTPTGSWETGKRYHLVLTMANKIGSVYIDGELLEGSGQTVVPDGRTPDISHFYVGGYKRSDMPTISHVTVNNVLLYNRRQLNTEEIRTLFLSQDLIGTEAHMDSSSDSSAHSTPSTPADSSAHSTPSTPVDSSAHSTPSTPADSSAHGTPSTPVDSSAHGTPSTPADSSAHGTPSTPVDS
- IL-6 secretion by T-24 cells (IL-6 [1]): did not promote IL-6 release from T-24 cells
- survival of Schwann cells transfected with dominant negative PTEN mutant (pG129R) (human Schwann cells; CD 500 ng/ml): did not detectably enhance Akt phosphorylation and survival
- survival of control Schwann cells transfected with GFP vector (human Schwann cells; CD 500 ng/ml, serum-free, 48 hours): did increase survival of the cells
- survival of Schwann cells over expressing kinase-inactive Akt (AktKI) (human Schwann cells; CD 500 ng/ml, serum-free, 48 hours, listed as CD): did not increase survival of the cells; also recorded: did not promote survival
- fragmented nuclei in Schwann cells transfected with empty vector (neo) (human Schwann cells; CD 500 ng/ml, serum-starved): decreased the number of fragmented nuclei by about ten-fold
- rescue from apoptosis of Schwann cells over expressing PTEN (human Schwann cells; CD 500 ng/ml, listed as CD): did not rescue cells from apoptotic death; also recorded: did not rescue Schwann cells that over expressed PTEN from apoptosis
- inhibition of serum withdrawal-induced apoptosis of Schwann cells (human Schwann cells; serum-free DMEM, 24-72 hours, listed as CD): protected Schwann cells against apoptosis; also recorded: nearly as effective in protecting Schwann cells from apoptosis as 2% serum; also recorded: protected human Schwann cells from apoptosis; also recorded: nearly as effective as 2% serum at inhibiting apoptosis; also recorded: dose-dependent inhibition of serum withdrawal-induced apoptosis
- neurite outgrowth in N18 cells (neuroblastoma N18 cells): induced neurite outgrowth to about the same extent as the intact enzyme
- Akt phosphorylation in Schwann cells transfected with dominant negative PTEN mutant (Akt kinase [3]; CD 500 ng/ml): did not detectably enhance Akt phosphorylation
- Akt phosphorylation in Schwann cells transfected with empty vector (neo) (Akt kinase [3]; CD 500 ng/ml): boosted levels of phospho-Akt
- time within which CD activated Schwann cell Akt kinase (Akt kinase [3]; CD 500 ng/ml): 1 to 5 min
- transience of Akt activation in Schwann cells (Akt kinase [3]; CD 500 ng/ml): phospho-Akt not detected after 15 min
- Akt kinase activity in control GFP-transfected Schwann cells (Akt kinase [3]; CD 500 ng/ml, 2 minutes, GSK-3α substrate): stimulation of Akt activity
- Akt kinase activity in Schwann cells over expressing AktKI (Akt kinase [3]; CD 500 ng/ml, 2 minutes, GSK-3α substrate, listed as CD): inability of CD to enhance endogenous Akt enzymatic activity; also recorded: did not activate Akt kinase
- Akt phosphorylation in Schwann cells over expressing PTEN (Akt kinase [3]; CD 500 ng/ml, listed as CD): did not result in the generation of phospho-Akt; also recorded: did not induce phosphorylation of Akt kinase
- phosphorylation (activation) of Akt kinase in Schwann cells (Akt kinase [3]; Western blot P-Akt (Ser473), listed as CD): induced transient phosphorylation of Akt kinase
- trans-sialidase (enzymatic) activity (Trans-sialidase assay): enzymatically active
- phosphorylation (activation) of Akt kinase in PC12 cells (Akt kinase [4]): effective in activating Akt
- protection of PC12 cells from apoptosis induced by trophic factor withdrawal (PC12 cells): PC12 cell survival being induced by TS-F
